Where two headings read alike, the source gives them in different places.
Tests used:
[1] = biological target: T1, human pIgR extracellular domain (ECD) (human, UniProt P01833 19-638); assay: BLI; summary table, repeats Table 1
T1 construct: also called hpIgR ECD
Target sequence in this assay (P01833 other isoform, or with tags, fused parts or gaps): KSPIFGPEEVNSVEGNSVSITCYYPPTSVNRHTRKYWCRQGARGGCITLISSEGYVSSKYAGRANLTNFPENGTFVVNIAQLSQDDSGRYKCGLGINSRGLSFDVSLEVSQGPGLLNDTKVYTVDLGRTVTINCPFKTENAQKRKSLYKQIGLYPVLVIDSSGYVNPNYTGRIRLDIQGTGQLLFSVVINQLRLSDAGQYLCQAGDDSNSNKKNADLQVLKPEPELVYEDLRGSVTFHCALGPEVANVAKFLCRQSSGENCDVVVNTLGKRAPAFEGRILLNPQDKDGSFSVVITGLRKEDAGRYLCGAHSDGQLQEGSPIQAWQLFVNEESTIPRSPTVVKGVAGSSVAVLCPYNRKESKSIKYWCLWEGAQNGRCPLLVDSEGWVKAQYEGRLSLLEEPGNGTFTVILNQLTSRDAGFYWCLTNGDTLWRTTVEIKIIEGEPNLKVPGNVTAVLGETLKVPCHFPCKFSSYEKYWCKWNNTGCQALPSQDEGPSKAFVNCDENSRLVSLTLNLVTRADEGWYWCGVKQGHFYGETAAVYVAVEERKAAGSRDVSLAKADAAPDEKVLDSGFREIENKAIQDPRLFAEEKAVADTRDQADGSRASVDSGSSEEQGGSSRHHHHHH

[2] = biological target: T2, human pIgR, full-length, on cells (human, UniProt P01833 19-764); assay: cell-based or functional assay
[3] = biological target: T1, human pIgR extracellular domain (ECD); assay: ECL (MSD), hpIgR-ECD coated, anti-VHH detection
Target sequence in this assay (P01833 other isoform, or with tags, fused parts or gaps): as above
Protocol: (§1) To check whether VHH recognizes a buried epitope on pIgR, EC₅₀ values were measured for VHH-mono-Fc molecules binding to hpIgR-ECD protein by electrochemiluminescence using two different detection antibodies, an anti-Fc antibody and an anti-VHH antibody. pIgR ECD (10 μg/ml in PBS) was coated on high-bind MSD plates for 2 hours at RT with 1000 rpm, incubated with blocking buffer for 1 hour at RT, incubated with VHH-mono-Fc molecules (increasing concentrations in PBS) for 2 hours at RT with 1000 rpm, washed 3× with PBT, incubated with ruthenylated secondary antibody (2 μg/ml in PBS) for 1 hour at RT with 1000 rpm, washed 3× with PBT and read plates in 40 ul reading buffer using the MSD imager. EC50 was calculated by fitting log VHH concentration versus log ECLU in Prism (Graphpad). The increase in EC₅₀ (>50-fold) due to anti-VHH detection was used as a measure to determine whether VHH recognized buried epitope on pIgR.

[4] = biological target: T2, human pIgR, full-length, on cells; assay: cell-based or functional assay; remark: listed apart in the source
[5] = biological target: T2, human pIgR, full-length, on cells; assay: flow cytometry on MDCK-hpIgR cells; summary table, repeats Table 1
Protocol: (§2) Flow Cytometry was performed as follows. To test whether VHH-mono-Fc molecules recognize cell-surface hpIgR, Madin-Darby canine kidney (MDCK) cells engineered to express full-length hpIgR were used. Cells were cultured in Dulbecco's modified Eagle's medium containing 10% fetal calf serum at 37° C. with 5% CO₂. Cells were split into equal fractions (≈70,000 cells) and incubated with increasing concentrations of VHH-mono-Fc molecules for 30 min at 4 C. […] Cells were washed twice with cold staining buffer, resuspended in running buffer and analyzed with an iQue Screener (IntelliCyt Corporation). Binding was assessed by RL1 (A647) Geomeans from the live cell population and EC50 was calculated by fitting log VHH concentration versus MFI in Prism (Graphpad).

[6] = biological target: T3, human pIgR extracellular domain 4-domain 5 (D4-D5) (human, UniProt P01833 350-565); assay: BLI (Octet RED384), 1:1 fit, 25 C, PBS
T3 construct: HIS-tagged construct made in HEK293 cells; also called hpIgR domains 4-5
T3 chain: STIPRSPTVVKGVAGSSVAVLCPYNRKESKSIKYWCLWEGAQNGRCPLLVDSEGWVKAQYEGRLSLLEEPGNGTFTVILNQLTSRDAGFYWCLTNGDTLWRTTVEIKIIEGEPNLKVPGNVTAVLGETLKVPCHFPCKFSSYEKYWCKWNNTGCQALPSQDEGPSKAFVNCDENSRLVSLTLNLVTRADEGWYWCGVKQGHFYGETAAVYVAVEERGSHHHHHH

[7] = biological target: T1, human pIgR extracellular domain (ECD); assay: BLI (Octet RED384), 1:1 fit, 25 C, PBS
Target sequence in this assay (P01833 other isoform, or with tags, fused parts or gaps): as the sequence (P01833 other isoform, or with tags, fused parts or gaps) above

[8] = biological target: T1, human pIgR extracellular domain (ECD); assay: BLI; summary table, repeats Table 1; remark: listed apart in the source
Target sequence in this assay (P01833 other isoform, or with tags, fused parts or gaps): as the sequence (P01833 other isoform, or with tags, fused parts or gaps) above

[9] = biological target: T2, human pIgR, full-length, on cells; assay: flow cytometry on MDCK-hpIgR cells; summary table, repeats Table 1; remark: listed apart in the source
Protocol: as §2

[10] = biological target: T4, human pIgR extracellular domain 1-domain 2 (D1-D2) (human, UniProt P01833 19-240); assay: ECL (MSD) heat map, HIS-tagged construct captured via anti-HIS, anti-human-Fc detection
T4 construct: HIS-tagged construct made in HEK293 cells
Protocol: (§3) The Electrochemiluminescence assay was performed as follows. A meso-scale discovery (MSD) platform was used for conducting epitope mapping and epitope burial studies. To test the binding of VHH-mono-Fc molecules to purified pIgR protein constructs, Streptavidin MSD plates were coated with a biotinylated anti-HIS antibody (2 μg/ml in PBS) for 1 hour at RT with 1000 rpm, washed 3× with PBT (PBS+0.1% Tween-20), incubated with blocking buffer for 1 hour at RT, incubated with His-tagged pIgR proteins (10 μg/ml in PBS) for 2 hours at RT with 1000 rpm, washed 3× with PBT, incubated with VHH-mono-Fc molecules (100 μg/ml in PBS) for 2 hours at RT with 1000 rpm, washed 3× with PBT, incubated with ruthenylated-anti-human-Fc antibody (2 μg/ml in PBS) for 1 hour at RT with 1000 rpm, washed 3× with PBT and read plates in 40 ul reading buffer using the MSD imager. ECLU values were plotted as a heatmap.

[11] = biological target: T5, human pIgR extracellular domain 1 (D1) (human, UniProt P01833 19-127); assay: as above
T5 construct: HIS-tagged construct made in HEK293 cells; also called hpIgR domain-1
Protocol: as §3

hpIgR_D2-D3 = biological target: T6, hpIgR_D2-D3; assay: as above
T6 construct: HIS-tagged construct from HEK293 cells; also called human pIgR extracellular domain 2-domain 3 (D2-D3); hD2-D3
Protocol: as §3
T6 HIS-tagged domain construct: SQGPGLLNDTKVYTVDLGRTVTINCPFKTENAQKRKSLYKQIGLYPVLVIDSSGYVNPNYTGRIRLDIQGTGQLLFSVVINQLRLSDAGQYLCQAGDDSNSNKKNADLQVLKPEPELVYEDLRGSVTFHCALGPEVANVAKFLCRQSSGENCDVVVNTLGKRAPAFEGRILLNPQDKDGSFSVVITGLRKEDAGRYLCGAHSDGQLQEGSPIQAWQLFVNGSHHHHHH

[12] = biological target: T2, human pIgR, full-length, on cells; assay: cell-based or functional assay; remark: listed apart in the source
[13] = biological target: T2, human pIgR, full-length, on cells; assay: flow cytometry on MDCK-hpIgR cells
[14] = biological target: T3, human pIgR extracellular domain …; assay: BLI (Octet RED384), 1:1 fit, 25 C, PBS; column kdis
[15] = biological target: T1, human pIgR extracellular domain (ECD); assay: as above
Target sequence in this assay (P01833 other isoform, or with tags, fused parts or gaps): as the sequence (P01833 other isoform, or with tags, fused parts or gaps) above

[16] = biological target: T1, human pIgR extracellular domain (ECD); assay: ECL (MSD), anti-VHH detection against anti-Fc detection
Target sequence in this assay (P01833 other isoform, or with tags, fused parts or gaps): as the sequence (P01833 other isoform, or with tags, fused parts or gaps) above
Protocol: as §1

[17] = biological target: T1, human pIgR extracellular domain (ECD); assay: BLI (Octet), VHH-mono-Fc and hpIgR ectodomain
hpIgR_D3 = biological target: T7, hpIgR_D3; assay: ECL (MSD) heat map, HIS-tagged construct captured via anti-HIS, anti-human-Fc detection;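 note: VHH-mono-Fc molecules tested at 100 µg/ml for 2 h on captured His-tagged pIgR constructs (10 µg/ml), read-out as electrochemiluminescence units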
T7 construct: HIS-tagged construct from HEK293 cells; also called human pIgR extracellular domain 3 (D3); hD3
Protocol: (§4) A meso-scale discovery (MSD) platform was used for conducting epitope mapping and epitope burial studies. To test the binding of VHH-mono-Fc molecules to purified pIgR protein constructs, Streptavidin MSD plates were coated with a biotinylated anti-HIS antibody (2 μg/ml in PBS) for 1 hour at RT with 1000 rpm, washed 3× with PBT (PBS+0.1% Tween-20), incubated with blocking buffer for 1 hour at RT, incubated with His-tagged pIgR proteins (10 μg/ml in PBS) for 2 hours at RT with 1000 rpm, washed 3× with PBT, incubated with VHH-mono-Fc molecules (100 μg/ml in PBS) for 2 hours at RT with 1000 rpm, washed 3× with PBT, incubated with ruthenylated-anti-human-Fc antibody (2 μg/ml in PBS) for 1 hour at RT with 1000 rpm, washed 3× with PBT and read plates in 40 ul reading buffer using the MSD imager. ECLU values were plotted as a heatmap.
(§5) Binding of VHH-mFc molecules were tested to immobilized pIgR constructs by the electrochemiluminescence method.
T7 HIS-tagged domain construct: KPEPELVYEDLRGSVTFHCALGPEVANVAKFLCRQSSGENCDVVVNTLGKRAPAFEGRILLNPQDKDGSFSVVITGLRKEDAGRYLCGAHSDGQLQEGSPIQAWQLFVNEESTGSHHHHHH

[18] = biological target: T8, human pIgR extracellular domain 2 (D2) (human, UniProt P01833 128-242); assay: as above
T8 construct: HIS-tagged construct made in HEK293 cells; also called hpIgR domain 2
Protocol: as §4, §5

[19] = biological target: T1, human pIgR extracellular domain (ECD); assay: ECL (MSD), hpIgR-ECD coated, anti-Fc detection
Protocol: as §1

[20] = biological target: T8, human pIgR extracellular domain 2 (D2); assay: ECL (MSD) heat map, HIS-tagged construct captured via anti-HIS, anti-human-Fc detection; remark: listed apart in the source
Protocol: as §3

[21] = biological target: T3, human pIgR extracellular domain …; assay: as above
Protocol: as §3

[22] = biological target: T9, human pIgR extracellular domain 5 (D5) (human, UniProt P01833 460-565); assay: as above
T9 construct: HIS-tagged construct made in HEK293 cells; also called hpIgR domain 5
Protocol: as §4, §5

[23] = biological target: T5, human pIgR extracellular domain 1 (D1); assay: as above; remark: listed apart in the source
Protocol: as §4, §5

T2 sequence (P01833 19-764): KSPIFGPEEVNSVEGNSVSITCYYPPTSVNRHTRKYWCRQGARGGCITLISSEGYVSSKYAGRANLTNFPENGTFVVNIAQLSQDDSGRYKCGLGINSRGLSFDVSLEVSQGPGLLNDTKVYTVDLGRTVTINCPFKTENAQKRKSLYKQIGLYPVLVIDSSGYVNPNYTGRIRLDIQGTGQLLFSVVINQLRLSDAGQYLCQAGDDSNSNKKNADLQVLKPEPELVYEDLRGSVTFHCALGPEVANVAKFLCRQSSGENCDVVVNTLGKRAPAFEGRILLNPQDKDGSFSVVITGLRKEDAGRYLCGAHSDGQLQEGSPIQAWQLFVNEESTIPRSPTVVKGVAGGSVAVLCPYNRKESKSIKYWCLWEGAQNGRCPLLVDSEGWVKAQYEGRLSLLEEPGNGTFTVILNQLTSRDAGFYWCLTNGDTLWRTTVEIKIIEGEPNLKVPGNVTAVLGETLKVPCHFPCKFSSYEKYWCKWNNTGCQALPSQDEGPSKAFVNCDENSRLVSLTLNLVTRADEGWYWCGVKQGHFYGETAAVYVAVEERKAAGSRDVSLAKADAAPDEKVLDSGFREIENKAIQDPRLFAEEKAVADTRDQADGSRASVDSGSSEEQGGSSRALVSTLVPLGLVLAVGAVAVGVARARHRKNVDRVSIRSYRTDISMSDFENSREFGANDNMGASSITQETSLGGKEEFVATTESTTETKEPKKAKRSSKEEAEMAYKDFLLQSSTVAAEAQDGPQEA

B1: VHH12-linker-mono-Fc protein (Fc fusion)
chain: QVQLVETGGGLVQAGDSLRLSCAASGRTLSFNTYAMGWFRQAPGKEREFVASITWNGGSTSYADSVKGRFTITRDNAKNTATLRMNSLQPDDTAVYYCAAARYYVSGTYFPANYWGQGTQVTVSSEPKTPKPQPQPQLQPQPNPTTESKSPKSPAPELLGGPSVFLFPPKPKDTLMISRTPEVTCVVVDVSHEDPEVKFNWYVDGVEVHNAKTKPREEQYNSTYRVVSVLTVLHQDWLNGKEYKCKVSNKALPAPIEKTISKAKGQPREPQVYTKPPSREEMTKNQVSLSCLVKGFYPSDIAVEWESNGQPENNYKTTVPVLDSDGSFRLASYLTVDKSRWQQGNVFSCSVMHEALHNHYTQKSLSLSPGK
notes: made in CHO cells; also called VHH12-mono-Fc; hpIgR_266
- Kd [1]: 34 nM
- increase in their apical concentration relative to control VHH (MDCK-hpIgR monolayers) [2]: > 10 fold
- EC50 [3]: 0.2 nM
- For. Trans. (Fold Incr.) [4]: 29.5 fold
- Rev. Trans (Fold Incr.) [4]: 11.7 fold
- EC50 [5]: 4.6 nM
- Kd [6]: 73.1 nM
- kon [6]: 38500 M⁻¹ s⁻¹
- Kd [7]: 43.3 nM
- kon [7]: 38300 M⁻¹ s⁻¹
- Kd [8]: 34 nM
- EC50 [9]: 4.6 nM
- binding result [10]: no binding (tested: 100 ug/ml (single concentration))
- binding result [11]: no binding (tested: 100 ug/ml (single concentration))
- binding result (hpIgR_D2-D3): no binding (tested: 100 ug/ml (single concentration))
- Transcytosis (Fold Incr.) [12]: 38.6 fold
- EC50 [13]: 4.6 nM
- koff [14]: 0.00281 s⁻¹
- koff [15]: 0.00166 s⁻¹
- Fold change in EC50 [16]: 0.4 fold
- Kd [17]: 34 nM
- binding result (hpIgR_D3): no binding (tested: 100 ug/ml (single concentration))
- binding result [18]: no binding (tested: 100 ug/ml (single concentration))
- EC50 [19]: 0.5 nM

B2: VHH1 (Fc fusion)
VHH-linker-mono-Fc chain: QVQLVESGGGLVQAGGSLKLACAAPGLTFSSYRMGWFRQAPGQEREFVAAIDWNGRGTYYRYYADSVKGRSTISRDNAKNTMYLQMNSLKPEDTAVYYCAAGSIDLNWYGGMDYWGQGTQVTVSSEPKTPKPQPQPQLQPQPNPTTESKSPKSPAPELLGGPSVFLFPPKPKDTLMISRTPEVTCVVVDVSHEDPEVKFNWYVDGVEVHNAKTKPREEQYNSTYRVVSVLTVLHQDWLNGKEYKCKVSNKALPAPIEKTISKAKGQPREPQVYTKPPSREEMTKNQVSLSCLVKGFYPSDIAVEWESNGQPENNYKTTVPVLDSDGSFRLASYLTVDKSRWQQGNVFSCSVMHEALHNHYTQKSLSLSPGK
notes: Control VHH; also called mpIgR_011; VHH1-linker-mono-Fc protein
- binding result [20]: no binding (tested: 100 ug/ml (single concentration))
- binding result [10]: no binding (tested: 100 ug/ml (single concentration))
- binding result [21]: no binding (tested: 100 ug/ml (single concentration))
- binding result [22]: no binding (tested: 100 ug/ml (single concentration))
- binding result [23]: no binding (tested: 100 ug/ml (single concentration))

— US20220324970A1 (Janssen / Centocor, published 2022)
